T1: EphA10 antigen (R&D systems) (Homo sapiens (Human), UniProt Q5JZY3 34-565)
T1 construct: Coated antigen in the indirect ELISA; The Biacore assay says only 'EphA 10' without source or form; also called ephrin type-A receptor 10
T1 sequence: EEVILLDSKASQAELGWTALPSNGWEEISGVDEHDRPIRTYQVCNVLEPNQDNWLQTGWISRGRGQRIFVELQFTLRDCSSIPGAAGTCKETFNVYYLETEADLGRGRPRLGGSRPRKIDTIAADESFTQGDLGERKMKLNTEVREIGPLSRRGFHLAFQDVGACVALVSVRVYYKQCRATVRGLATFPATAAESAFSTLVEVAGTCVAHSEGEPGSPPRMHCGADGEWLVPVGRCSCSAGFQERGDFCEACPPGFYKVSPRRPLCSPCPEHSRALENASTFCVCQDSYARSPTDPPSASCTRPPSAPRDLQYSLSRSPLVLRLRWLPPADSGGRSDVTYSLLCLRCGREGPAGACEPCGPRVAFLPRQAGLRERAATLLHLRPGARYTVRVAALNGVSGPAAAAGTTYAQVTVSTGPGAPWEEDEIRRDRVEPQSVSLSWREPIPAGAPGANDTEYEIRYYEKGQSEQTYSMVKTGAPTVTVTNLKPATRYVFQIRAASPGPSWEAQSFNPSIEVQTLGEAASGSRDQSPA

T2: full-length human EphA10 expressed on NIH 3T3 cells (human, UniProt Q5JZY3 34-1008)
T2 construct: whole, on cells
T2 sequence (looked up): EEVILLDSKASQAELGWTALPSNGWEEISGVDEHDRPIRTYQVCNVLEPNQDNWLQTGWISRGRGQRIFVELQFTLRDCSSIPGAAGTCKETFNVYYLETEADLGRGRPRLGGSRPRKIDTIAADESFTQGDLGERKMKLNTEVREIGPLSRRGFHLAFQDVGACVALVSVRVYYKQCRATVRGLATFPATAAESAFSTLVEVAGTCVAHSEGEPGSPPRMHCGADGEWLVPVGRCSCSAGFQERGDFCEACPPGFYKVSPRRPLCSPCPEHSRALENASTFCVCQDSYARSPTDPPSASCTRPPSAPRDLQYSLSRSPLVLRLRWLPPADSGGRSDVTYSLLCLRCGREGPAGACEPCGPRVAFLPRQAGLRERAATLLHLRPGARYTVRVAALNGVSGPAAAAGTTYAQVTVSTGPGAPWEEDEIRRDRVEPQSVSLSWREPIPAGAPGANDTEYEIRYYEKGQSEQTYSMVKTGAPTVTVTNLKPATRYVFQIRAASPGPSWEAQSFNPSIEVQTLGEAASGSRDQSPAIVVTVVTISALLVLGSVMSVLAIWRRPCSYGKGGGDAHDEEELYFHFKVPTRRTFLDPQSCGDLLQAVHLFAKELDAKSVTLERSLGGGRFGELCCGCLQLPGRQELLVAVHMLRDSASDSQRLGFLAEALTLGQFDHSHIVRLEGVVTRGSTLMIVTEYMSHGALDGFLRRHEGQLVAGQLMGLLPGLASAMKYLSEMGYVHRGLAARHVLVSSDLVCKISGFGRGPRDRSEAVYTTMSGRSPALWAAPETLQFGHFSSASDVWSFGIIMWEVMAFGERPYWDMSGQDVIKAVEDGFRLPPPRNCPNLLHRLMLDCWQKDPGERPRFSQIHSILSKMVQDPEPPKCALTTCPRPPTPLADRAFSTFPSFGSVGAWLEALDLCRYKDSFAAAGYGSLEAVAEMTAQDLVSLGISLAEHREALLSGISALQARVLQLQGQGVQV

B1: CMU #13 ScFv-mouse IgG2a antibody (Fc fusion)
chain: QVQLVQSGAEVKKPGSSVKVSCKASGGTFSSYAISWVRQAPGQGLEWMGGIIPIFGTANYAQKFQGRVTITADESTSTAYMELSSLRSEDTAVYYCAREGDSYGYYYGMDVWGQGTTVTVSSGGGGSGGGGSGGGGSQPVLTQPPSASGTPGQRVTISCSGSSSNIGSNYVYWYQQLPGTAPKLLIYENYLRPSGVPDRFSGSKTGTSASLAISGLQSEDEADYYCAAWDDSLNGYVFGTGTQLTVLSEPRGPTIKPCPPCKCPAPNLLGGPSVFIFPPKIKDVLMISLSPIVTCVVVDVSEDDPDVQISWFVNNVEVHTAQTQTHREDYNSTLRVVSALPIQHQDWMSGKEFKCKVNNKDLPAPIERTISKPKGSVRAPQVYVLPPPEEEMTKKQVTLTCMVTDFMPEDIYVEWTNNGKTELNYKNTEPVLDSDGSYFMYSKLRVEKKNWVERNSYSCSVVHEGLHNHHTTKSFSRTPGK
notes: The Biacore assay names only 'CMU #13'; also called anti-EphA10 antibody CMU #13
B2: CMU #13 scFv (clone from human B cell-derived scFv phage display library) (scFv)
scFv: QVQLVQSGAEVKKPGSSVKVSCKASGGTFSSYAISWVRQAPGQGLEWMGGIIPIFGTANYAQKFQGRVTITADESTSTAYMELSSLRSEDTAVYYCAREGDSYGYYYGMDVWGQGTTVTVSSGGGGSGGGGSGGGGSQPVLTQPPSASGTPGQRVTISCSGSSSNIGSNYVYWYQQLPGTAPKLLIYENYLRPSGVPDRFSGSKTGTSASLAISGLQSEDEADYYCAAWDDSLNGYVFGTGTQLTVLS

Legend:
[1] = target: T1, EphA10 antigen (R&D systems); assay: Biacore 8K SPR, global fit to 1:1 binding model, triplicates
Text: CMU #13 was also subjected to a Biacore assay.

[2] = target: T1, EphA10 antigen (R&D systems); assay: indirect ELISA on coated EphA antigen, ScFv-mouse IgG2a antibody titrated
Description: ScFv sequences were fused with mouse IgG2a sequence and sub-cloned into pcDNA3.1 plasmid. Three ScFv-mouse IgG2a plasmids were transfected into HEK293 cells. Three ScFv-mouse IgG2a antibodies were purified by protein A resin. Three antibodies were tested for indirect ELISA against coated 9 EPHA antigens (EphA1-8 and 10, R&D systems).

[3] = target: T2, full-length human EphA10 expressed on …; assay: FACS on NIH 3T3 cells expressing full-length human EphA10

| Binder | Kd [1] | koff [1] | kon [1] | EC50 (read off the curve) [2] | binding result [3] |
| --- | --- | --- | --- | --- | --- |
| B1 | 1.79 nM | 0.00288 s⁻¹ | 1.61e+06 M⁻¹ s⁻¹ | ~0.4 nM |  |
| B2 |  |  |  |  | binds |
